In US20060177918:

system: Myelin Basic Protein (Upstate USA, Inc. cat. no: 13-104)

Question: MAP kinase1/Erk1 (Upstate USA, Inc.) was tested. Which “increase in fluorescence over time (real-time kinase assay)” value (“increase in fluorescence over time” for short) did it give?
Answer: Its value is “greater than 4 fold increase in fluorescence over time”.

Question: MAP kinase2/Erk2 (Upstate USA, Inc.) was tested. Which “increase in fluorescence over time” value did it give?
Answer: Its value is “greater than 4 fold increase in fluorescence over time”.

Question: How did the “increase in fluorescence over time” value turn out when PKCβII (Upstate USA, Inc.) was run?
Answer: Its value is “greater than 4 fold increase in fluorescence over time”.
